The values that follow come from article PMC11876699, “Elongator is a microtubule polymerase selective for polyglutamylated tubulin” (The EMBO Journal, 2025).

The Kd is the concentration at which binding is half-saturated. A low value points to tighter binding.

Sequences and labels used below:
B2: eGFP-Elp456 (Drosophila, wild type) (complex)
chain 1: MTSFRKRTVQKPIRGTRTSPHTAQVITSSGNPYLDVVIGGGLPMGSICLIEEDRFMTHAKVLAKYFLAEGVISKQEIFLGSLDDIPAEMLRRLPRPLTDQESMEQSEVQALGDAGAENGLRIAWRYNDLPLVNSEHATAKIGHHFNLMEQMDSMMLYNVKTTLWDDSPKHLDIVIDEEFSKSSSPTTPSLEQQPVEDAPPIPGTETAPQEKMPAQEEENSANNNNNNNNNSSSVTSSTKTGSQDSPLQVFHNPRYKGLLNDIQQLLRNESFVAGTKNNLCRVCLTSLGSPLWYDEHFGEDLIKFLTLLMASVRNCNSVCLITMPMHLIAKYDASLVPKIRQLVDYAIELESFAGSERETHPAFKEYSGLLHLHKMSAINTLAVHMPETPDLAFKLRRKKFIIEKFHLPPELQESSAKPDNCISGLLSNSNATASLDF
chain 2: MLSNLVVTKQKVVLVIDELNRERIAPKFIGSLLHEQGQGADTIKALPTGVSLKHVATFEALIDKYANNNTGSTTDSNSTGFNVILPTLADLLCYQTPAFIFGFLNRLRRSDNVRRVFLWASPQHLQDPHADYILAGCEYLAELVLRLESDKLLSLISRKPGGGVSNRRYSCEVSKTQFKVTPLDGGLPAGASPKQPSPEAEQTTEPASSTFKIELDEDEVLARNALTLPYERTSEPSEGNIIYTPDADDDFDEEDPDEDLCI
chain 3: MATSVLLACGLNEQKLPGFVHISEESNVDASFLISCVLGQRLRISNAGTLLVCLQHHYQHYFNAGMRLGYNTNIFQGKTLGVIDVLSDMAGEGLASKWLTNTEGQTLTDQLVEDIRAQVERNYASRNSYTVLIDNLSILFNLGASKLQVQQFCQDLAALGKEREKLTVITKLSNSDIYQLTDNNVAKLGQVRIQVLRLKSGVFREVDGKLLIERVLDEGNYACEETRKEVLYKVNDRNVKVFAPGEIGVKV
notes: Elp4, Drosophila melanogaster; Elp5, Drosophila melanogaster; ORF; Elp6, Drosophila melanogaster; it is put on Elp4 here only by the name eGFP-Elp456 (surmised); also called eGFP-Elp456 (WT); source: E. coli BL21 (DE3) Rosetta2, purified (Glutathione Sepharose, TEV elution, Superdex 200); not shown: GST, N-terminal, cleaved; copies: 2 + 2 + 2

Where only a bound is given, the exact number is not on record here.

Test [1] addresses eGFP-Elp456 solo (Drosophila, three point mutations in each subunit) (Drosophila) (UniProt Q9VMQ7). The test is described as follows: MST; Monolith X, 25 °C; eGFP-Elp456 (WT or mutated) constant at 50 nM, tubulin or Elp123 in twofold dilution series; binding buffer with 0.05% Tween-20.
Test [2] concerns the target B2. The description is as above.
The target of test [3] is microtubules assembled from porcine brain tubulin (pig, UniProt Q2XVP4 1-451, rhodamine, AMCA, HiLyte 647 or biotin on part of the tubulin, by experiment). The test is described as follows: TIRF microscopy of decorated microtubules; GMPCPP-stabilized microtubules settled on passivated glass, proteins added one after the other in BRB80 imaging buffer; 100 nM 488-SNAP-Elongator or 488-SNAP-Elp123, 500 nM mScarlet-Elp456, 15 µM 647-GTP-Tubulin. The note with it: both partners purified.

Test [4] concerns the target T1, Elp123 subcomplex (Drosophila Elp1, Elp2 and His6-PC-SNAP-Elp3) (Drosophila melanogaster, UniProt Q9VGK7 1-1252; Q7K4B3 1-794; Q9VQZ6 1-552, Alexa Fluor 488 on the SNAP tag).
T1 construct: Elp1, Drosophila melanogaster, codon-optimised synthetic gene, untagged; Elp2, Drosophila melanogaster, codon-optimised synthetic gene, untagged; Elp3, Drosophila melanogaster, codon-optimised synthetic gene; Elutes at about 600 kDa, a dimer of Elp1-Elp2-Elp3 protomers; source: Sf9, baculovirus (biGBac pBig1a), purified (Protein C resin, heparin, Superose 6); not shown: His6, N-terminal, kept; …
The test is described as follows: MST; Monolith X, 25 °C; eGFP-Elp456 (WT or mutated) constant at 50 nM, tubulin or Elp123 in twofold dilution series; binding buffer with 0.05% Tween-20. Conditions: both partners purified.

The target in test [5] is B2. The test is described as follows: MST; as a11, with 100 µM tRNA (and 2.5 mM MgATP by the legend) in the buffer of both partners. The note with it: both partners purified.

T1 sequence (Q9VGK7 whole entry, chain 1 of 3): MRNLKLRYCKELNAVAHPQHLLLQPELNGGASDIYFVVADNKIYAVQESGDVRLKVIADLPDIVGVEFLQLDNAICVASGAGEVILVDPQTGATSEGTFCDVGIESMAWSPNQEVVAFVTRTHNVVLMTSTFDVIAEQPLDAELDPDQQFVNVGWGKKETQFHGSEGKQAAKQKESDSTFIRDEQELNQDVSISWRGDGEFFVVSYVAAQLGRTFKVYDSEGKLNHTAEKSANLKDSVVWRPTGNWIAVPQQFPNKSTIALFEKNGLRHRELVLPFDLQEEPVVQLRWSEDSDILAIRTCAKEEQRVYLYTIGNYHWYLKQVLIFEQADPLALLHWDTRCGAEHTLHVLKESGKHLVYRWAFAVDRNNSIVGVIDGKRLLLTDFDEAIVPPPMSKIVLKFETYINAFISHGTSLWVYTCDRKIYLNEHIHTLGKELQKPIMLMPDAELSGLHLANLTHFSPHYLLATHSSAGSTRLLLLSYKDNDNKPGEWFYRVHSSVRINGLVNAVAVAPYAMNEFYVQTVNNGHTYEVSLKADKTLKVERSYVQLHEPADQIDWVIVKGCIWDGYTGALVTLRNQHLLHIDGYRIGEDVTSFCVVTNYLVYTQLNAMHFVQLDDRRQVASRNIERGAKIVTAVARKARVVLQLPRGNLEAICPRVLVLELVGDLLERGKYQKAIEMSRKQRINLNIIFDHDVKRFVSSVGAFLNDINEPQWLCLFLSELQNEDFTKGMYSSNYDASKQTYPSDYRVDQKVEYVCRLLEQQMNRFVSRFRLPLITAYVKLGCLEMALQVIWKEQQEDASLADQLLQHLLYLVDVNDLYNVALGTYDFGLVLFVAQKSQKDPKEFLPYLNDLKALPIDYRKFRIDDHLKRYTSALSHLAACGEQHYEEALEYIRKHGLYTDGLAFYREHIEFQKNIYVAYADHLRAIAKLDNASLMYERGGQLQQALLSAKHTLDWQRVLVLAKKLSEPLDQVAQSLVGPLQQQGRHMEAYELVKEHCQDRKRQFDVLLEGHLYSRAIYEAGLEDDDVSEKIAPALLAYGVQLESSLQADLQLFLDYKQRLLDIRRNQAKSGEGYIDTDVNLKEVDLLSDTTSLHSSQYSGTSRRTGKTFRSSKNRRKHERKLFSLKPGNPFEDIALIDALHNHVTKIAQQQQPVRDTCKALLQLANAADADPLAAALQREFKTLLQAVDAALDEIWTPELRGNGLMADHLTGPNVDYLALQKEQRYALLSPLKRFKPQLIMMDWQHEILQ
T1 sequence (Q7K4B3 whole entry, chain 2 of 3): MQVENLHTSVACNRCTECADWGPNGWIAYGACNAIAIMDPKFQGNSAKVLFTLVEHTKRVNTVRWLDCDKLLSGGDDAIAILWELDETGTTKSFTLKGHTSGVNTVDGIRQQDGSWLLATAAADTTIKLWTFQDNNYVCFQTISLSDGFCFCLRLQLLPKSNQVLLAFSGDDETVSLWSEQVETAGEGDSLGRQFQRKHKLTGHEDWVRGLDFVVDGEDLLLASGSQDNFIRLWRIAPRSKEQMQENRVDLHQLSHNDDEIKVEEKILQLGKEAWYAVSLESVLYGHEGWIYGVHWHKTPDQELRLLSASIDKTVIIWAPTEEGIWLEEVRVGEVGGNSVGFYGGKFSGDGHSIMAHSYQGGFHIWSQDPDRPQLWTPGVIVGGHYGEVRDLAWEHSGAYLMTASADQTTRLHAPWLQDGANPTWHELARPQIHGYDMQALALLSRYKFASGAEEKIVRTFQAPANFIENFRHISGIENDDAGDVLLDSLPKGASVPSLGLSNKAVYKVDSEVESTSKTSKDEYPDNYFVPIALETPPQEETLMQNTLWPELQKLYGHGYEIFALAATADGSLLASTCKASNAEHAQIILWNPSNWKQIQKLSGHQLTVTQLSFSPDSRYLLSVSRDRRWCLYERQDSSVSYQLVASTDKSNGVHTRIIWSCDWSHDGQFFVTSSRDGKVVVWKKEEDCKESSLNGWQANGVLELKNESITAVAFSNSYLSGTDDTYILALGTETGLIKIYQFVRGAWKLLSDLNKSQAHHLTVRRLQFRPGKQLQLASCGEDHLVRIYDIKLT
T1 sequence (Q9VQZ6 whole entry, chain 3 of 3): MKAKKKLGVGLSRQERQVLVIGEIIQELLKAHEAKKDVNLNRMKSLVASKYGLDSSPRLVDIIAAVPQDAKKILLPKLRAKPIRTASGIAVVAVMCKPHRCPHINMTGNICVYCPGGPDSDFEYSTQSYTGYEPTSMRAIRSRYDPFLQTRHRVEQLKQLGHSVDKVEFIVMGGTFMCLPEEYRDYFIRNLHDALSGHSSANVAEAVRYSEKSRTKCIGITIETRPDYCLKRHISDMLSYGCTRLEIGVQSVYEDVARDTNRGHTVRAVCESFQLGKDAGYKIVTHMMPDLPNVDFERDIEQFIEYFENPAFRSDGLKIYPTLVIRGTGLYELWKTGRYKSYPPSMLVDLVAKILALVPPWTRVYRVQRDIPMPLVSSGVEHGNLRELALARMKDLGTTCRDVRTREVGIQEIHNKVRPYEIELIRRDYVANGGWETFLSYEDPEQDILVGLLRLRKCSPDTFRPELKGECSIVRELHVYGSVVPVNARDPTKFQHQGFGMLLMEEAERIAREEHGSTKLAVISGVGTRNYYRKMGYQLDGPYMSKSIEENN

As for “Elp123 subcomplex (Drosophila Elp1, Elp2 and His6-PC-SNAP-Elp3) (from UniProt Q9VGK7 1-1252; Q7K4B3 1-794; Q9VQZ6 1-552)”, the Kd in test [1] amounted to 67.1 nM.

Regarding “de-tyrosinated HeLa S3 tubulin (treated with carboxypeptidase A) (from UniProt P68363 1-451; P07437 1-444) (complex)”, the Kd in test [2] was greater than 22000 nM.

Turning to “pig brain tubulin (free GTP-αβ-tubulin heterodimers) (from UniProt Q2XVP4 1-451; P02554 1-445) (complex)”, the Kd in test [2] came to 1800 nM.

For the molecule “tubulin purified from HeLa S3 cells (from UniProt P68363 1-451; P07437 1-444) (complex)”, in test [2], the Kd came out at 21200 nM.

Molecule “tubulin purified from TTLL1/7-double KO mouse brain (lacking polyglutamylation) (from UniProt P68369 1-451; Q7TMM9 1-445) (complex)” came in with a Kd in test [2] greater than 25000 nM.

B1: mScarlet-Elp456 (Drosophila) (complex)
chain 1: MTSFRKRTVQKPIRGTRTSPHTAQVITSSGNPYLDVVIGGGLPMGSICLIEEDRFMTHAKVLAKYFLAEGVISKQEIFLGSLDDIPAEMLRRLPRPLTDQESMEQSEVQALGDAGAENGLRIAWRYNDLPLVNSEHATAKIGHHFNLMEQMDSMMLYNVKTTLWDDSPKHLDIVIDEEFSKSSSPTTPSLEQQPVEDAPPIPGTETAPQEKMPAQEEENSANNNNNNNNNSSSVTSSTKTGSQDSPLQVFHNPRYKGLLNDIQQLLRNESFVAGTKNNLCRVCLTSLGSPLWYDEHFGEDLIKFLTLLMASVRNCNSVCLITMPMHLIAKYDASLVPKIRQLVDYAIELESFAGSERETHPAFKEYSGLLHLHKMSAINTLAVHMPETPDLAFKLRRKKFIIEKFHLPPELQESSAKPDNCISGLLSNSNATASLDF
chain 2: MLSNLVVTKQKVVLVIDELNRERIAPKFIGSLLHEQGQGADTIKALPTGVSLKHVATFEALIDKYANNNTGSTTDSNSTGFNVILPTLADLLCYQTPAFIFGFLNRLRRSDNVRRVFLWASPQHLQDPHADYILAGCEYLAELVLRLESDKLLSLISRKPGGGVSNRRYSCEVSKTQFKVTPLDGGLPAGASPKQPSPEAEQTTEPASSTFKIELDEDEVLARNALTLPYERTSEPSEGNIIYTPDADDDFDEEDPDEDLCI
chain 3: MATSVLLACGLNEQKLPGFVHISEESNVDASFLISCVLGQRLRISNAGTLLVCLQHHYQHYFNAGMRLGYNTNIFQGKTLGVIDVLSDMAGEGLASKWLTNTEGQTLTDQLVEDIRAQVERNYASRNSYTVLIDNLSILFNLGASKLQVQQFCQDLAALGKEREKLTVITKLSNSDIYQLTDNNVAKLGQVRIQVLRLKSGVFREVDGKLLIERVLDEGNYACEETRKEVLYKVNDRNVKVFAPGEIGVKV
notes: Elp4, Drosophila melanogaster; Elp5, Drosophila melanogaster; ORF; Elp6, Drosophila melanogaster; put on Elp4 here by the name only (surmised); source: E. coli BL21 (DE3) Rosetta2, purified (Glutathione Sepharose, TEV elution, Superdex 200); not shown: GST, N-terminal, cleaved; copies: 2 + 2 + 2
On to B1, for which the “fold less fluorescence intensity on microtubules without Elp123 than with it” value in test [3] is 9.3 fold.

In turn, B2 came in with a Kd in test [4] of 15.5 ± 3.7 nM.

B3: recombinant Drosophila α1β1-tubulin heterodimers (His6-PC-tubulin α1 84B with co-purified tubulin β1 56D) (complex)
chain 1: MRECISIHVGQAGVQIGNACWELYCLEHGIQPDGQMPSDKTVGGGDDSFNTFFSETGAGKHVPRAVFVDLEPTVVDEVRTGTYRQLFHPEQLITGKEDAANNYARGHYTIGKEIVDLVLDRIRKLADQCTGLQGFLIFHSFGGGTGSGFTSLLMERLSVDYGKKSKLEFAIYPAPQVSTAVVEPYNSILTTHTTLEHSDCAFMVDNEAIYDICRRNLDIERPTYTNLNRLIGQIVSSITASLRFDGALNVDLTEFQTNLVPYPRIHFPLVTYAPVISAEKAYHEQLSVAEITNACFEPANQMVKCDPRHGKYMACCMLYRGDVVPKDVNAAIATIKTKRTIQFVDWCPTGFKVGINYQPPTVVPGGDLAKVQRAVCMLSNTTAIAEAWARLDHKFDLMYAKRAFVHWYVGEGMEEGEFSEAREDLAALEKDYEEVGMDSGDGEGEGAEEY
chain 2: MREIVHIQAGQCGNQIGAKFWEIISDEHGIDATGAYHGDSDLQLERINVYYNEASGGKYVPRAVLVDLEPGTMDSVRSGPFGQIFRPDNFVFGQSGAGNNWAKGHYTEGAELVDSVLDVVRKEAESCDCLQGFQLTHSLGGGTGSGMGTLLISKIREEYPDRIMNTYSVVPSPKVSDTVVEPYNATLSVHQLVENTDETYCIDNEALYDICFRTLKLTTPTYGDLNHLVSLTMSGVTTCLRFPGQLNADLRKLAVNMVPFPRLHFFMPGFAPLTSRGSQQYRALTVPELTQQMFDAKNMMAACDPRHGRYLTVAAIFRGRMSMKEVDEQMLNIQNKNSSYFVEWIPNNVKTAVCDIPPRGLKMSATFIGNSTAIQELFKRISEQFTAMFRRKAFLHWYTGEGMDEMEFTEAESNMNDLVSEYQQYQEATADEDAEFEEEQEAEVDEN
modifications: the paper calls this tubulin highly modified (polyglutamylated, acetylated and partially detyrosinated)
notes: tubulin α1 84B, Drosophila melanogaster, codon-optimised gene; tubulin β1 56D, Drosophila melanogaster, endogenous, co-purified with the tagged α chain; also called recombinant Drosophila tubulin; PC-α-Tubulin; source: D.mel-2 (S2) cells stably transfected (pMT Puro), purified (Protein C resin, Superdex 200); also in S2 cell lysate; not shown: His6, N-terminal, kept; PC, N-terminal, kept
With B3, the Kd in test [5] worked out at 2900 nM; in test [1], 1600 nM; in test [2] (both partners purified), 1200 nM.
